Results on 41 sequences are retold here after the nanobody polyreactivity screen of Harvey et al. (2022).

The series in a line: yeast display, Sf9 membrane polyspecificity reagent, FACS + sequencing; frameworks hold sequencing errors. The procedure, abridged: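 In a synthetic yeast display library (Saccharomyces cerevisiae BJ5465), nanobody expression was induced with galactose for 36–48 hours. FACS gates were set low and high (top ~1%) using anti-HA fluorescence for expression and streptavidin fluorescence for binding of the Sf9 membrane reagent. Each polyreactivity label is drawn from the gate of origin.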
For the sequence “QVQLVESGGGLVQAGGSLRLSCAASGSIFIYYAMGWYRQAPGKERELVADITFSAGSNTYYADSVKGRFTISRDNAKNTVYLQMNSLKPEDTAVYYCNADRGFIGSITEYDYWGQGTQVTVSS”, the “polyreactivity (PSR sort gate)” value is given as “low polyreactivity”.

“QVQLVESGGGLVQAGGSLRLSCAASGFTFVFYAMGWYRQAPGKERELVAAINSGGSTYYADSVKGRFTISRDIAKNTDYLQMNSLKPEDTAVYYCAKGSYGPSAGYGRRYYYWGQGTQVTVSS”: the “polyreactivity (PSR sort gate)” value is listed as “high polyreactivity”.

On to “QVQLVESGGGLFQAGGSLRLSCAPSGFTFSNYAMGWYRQAPGKEREFVAAISGTGGSTYYADSVKGRFTISRDNAKNTVYLQMNSLKPEDTEVYYCYFYFRRQYEHEYWGQGTQVTVSS”, for which the “polyreactivity (PSR sort gate)” value is “high polyreactivity”.

“QVQLQESGGGLVQAGGSLRPSCAASGSISDGVPKGWYRQAPGEERELVATTVLGATTNYADSVKGRFTISRGNAKNTVYLQMNSLKPEETAVYYCAAPLRYDKGFSYWGQGTQVTVSS”: the “polyreactivity (PSR sort gate)” value is reported as “low polyreactivity”.

Consider “QVQLVESGGGLVQAGGSLRLSCAASGITFLYYAMGGYRQAPGKERELVAAITSGGSTYYADSVKGRFTISRDNAKNTVYLQMNSLKPEDTAVYYCAAGTYDGGYHYDYWGEGTQVTVSS”, for which the “polyreactivity (PSR sort gate)” value is “high polyreactivity”.

Take “QVQLVESGGGLVQAGGSLRLSCAASGRTFYIYARGWYRKAPGKERELVAAITYGGGRTFYADSVKGRFTISRDNAKYTVYLQMNSLKPEDNAVYYCAATVRGKRSTYDYWGQGTQVTVSS”: the “polyreactivity (PSR sort gate)” value is “high polyreactivity”.

Regarding “QVQLVESGGGLVQAGGSLRLSCAAYGRTLGDYAMGWYRQAPGKERELVAAISSGGNTYYADSVKGRFTISRDNAKNTVYLQMKSVKPEDSAVYYCDAAHYYRSYWGQGTQETVSS”, the “polyreactivity (PSR sort gate)” value is recorded as “high polyreactivity”.

For “QVQLVESGGGLVQAGGSLRLSCADSGITFKYNAMGWYRQAPGKERELVAGITWTGGTTYYADSVKGRFTISRDNAKNTVYLQMNSLNPEDTAVYYCATRNYAVVPSVRREGYYWGQGTQVTVSS”, the “polyreactivity (PSR sort gate)” value was “low polyreactivity”.

For “QVQLVESGGGLVQAGGSLRLSCAASGFTFFPYAMGWYRQAPGKERELVATITRGGSTNYADSVKGRFTISRDNAKNSVYLQMNSLKPEDTAVYYCNIDKKTPTFDYWGQGTQVTVSS”, the “polyreactivity (PSR sort gate)” value is listed as “low polyreactivity”.

With “QVQLVESGGGLVQAGGSLRLSCAASGSISTWYAMGWYRQATGKERELVAAINSGDSTYYADSVKGRFTISRDNAKNTVYLQMNSLKPEDTAVYYCAASSYSSKPFDYWGQGTQVTVSS”, the “polyreactivity (PSR sort gate)” value is reported as “high polyreactivity”.

With “QVQLVESGGGLVQAGGSLRLSCAASGGTFTNYAMGWYRQAPGKERELVAAITDSGATTYYADSVKGRFTISRDNAKNTVYLQMNSLKPEDTAVYYCNAALDLYTDFDYWGQGTQVTVSS”, the “polyreactivity (PSR sort gate)” value is “low polyreactivity”.

Turning to “QVQLVESGGGLVQAGGSLRLSCAASGSIFDPYTMGWYRHEPGKESELVAAINWSGGSTYYADSVKGRFTISRENAKYTVYLQMNSLKPEDTAVYYCNADLTSYYEEDERNDDDYWGQGTQVTVSS”, the “polyreactivity (PSR sort gate)” value is given as “low polyreactivity”.

With “QVQLVESGGGLVQAGGSLRLSCAASGFTFPYNAMGWYRQAPGKERELVAAISWSGGSTYYADSVKGRFTISRDNAKNTVYLQMNSLKPEDTAVYYCAASYWRIPMEYWGQVTQVTVSS”, the “polyreactivity (PSR sort gate)” value is “high polyreactivity”.

Turning to “QVQLVESGGGLVQAGGSLRLSCAASGSIFDAYMGWYRQAPGKERELVAGITRSGGSTYYADSVKGRFTISRDNAKNTVYLQMNSLKPEDTAVYYCAADYSSDGDYWGQGTQVTVSS”, the “polyreactivity (PSR sort gate)” value is recorded as “low polyreactivity”.

For “QVQLVESGGGLVQAGGSLRLSCAASGTMPGYAMGWYRQAPGKERELVAAITWSDDSTFYADSVKGRFTISRDNAKNTVYLQMNSLKPEDTAVYYCAAEYVVSTQEFDYCGQGTQVTVSS”, the “polyreactivity (PSR sort gate)” value is “low polyreactivity”.

With “QVQLVESGGGLVQAGGSLRLSCAASGITFYWYAMGWYRQAPGKERELVAAISSGGSTYYADSVKGRFTISRDNAKNTVYLQMNSLKPEDTAVYYCAAAFRYTPLSDHGYWGQGTQVTVSS”, the “polyreactivity (PSR sort gate)” value was “high polyreactivity”.

For the sequence “QVQLVESVGGLVQAGGSLRLSCAASGRTFYHYAMGWYRQAPGKERELVAAITWSGGSTYYADSVKGRFTISRDNAKNTVYLQMNSLKPEDTAVYYCAAAYRPWRGGYYPVGYYYWGQGTQVTVSS”, the “polyreactivity (PSR sort gate)” value is “high polyreactivity”.

Consider “QVQHVESRGGLVQAGGSLRLSCAASGSIFSANAMGWYRQAPGKVRELVAAITRGGSTNYADSVKGRFTISRDNAKNTVYLQMNSLKPEDTAVYYCNAEPDPYSSGRVRRDYDYWGQGTQVTVSS”, for which the “polyreactivity (PSR sort gate)” value is “low polyreactivity”.

With “QVQLVESGGGLVQAGGSLRLSCAASGILFRFYAMGWYRQAPGKERELVAAISSGGSTYYADSVKGRFTISRDNAKNTVYLQMNSLKPEDTAVYYCNAGRKSTLVGYVRFYYWGQGTQVTVSS”, the “polyreactivity (PSR sort gate)” value was “high polyreactivity”.

For “QVQLVESGGGLVQAGGSLRLSCAASGSTFLYYAMGWYRQAPGKERELVAVIRLDAGRTYYADSVKGRFTISRDNAKNTVYFQMNSLKPEDTAVYYCAAKGSFRTYGGGNYWGQGTQVTVSS”, the “polyreactivity (PSR sort gate)” value is “high polyreactivity”.

For “QVQLVDSGGGLVQAGGSLRLSCAASGSIFHFYAMGWYREATGKERELVAAITRGGGSTYYADSVKGRFTISRDNAKNTVYLQMNSLKPEDTAVYYCAAYKYYRYNYWGQGTQVTVSS”, the “polyreactivity (PSR sort gate)” value is “high polyreactivity”.

Turning to “QVQLVESGVGLVQAGGSLRLSCAASGSTLPYYAMGWYRQAHGKERQMVAAITTSGGDTYSADSVKGRFTISRDNAKNTVYLQMNSLKPEDTAVYYCAISYSARSTVRKLFYFAYDYWGQGTQVTVSS”, the “polyreactivity (PSR sort gate)” value is “low polyreactivity”.

As to “QVQLVESGGGLVQAGGSLRLSCAASGSTFVDNAMGWYRQAPGKERELVADISSGGSTYYADSVKGRFTISRDNAKNTVYLQMNSLKPEDTAVYYCNAESFYWWHSYDYWGQGTQVTVSS”, the “polyreactivity (PSR sort gate)” value is given as “high polyreactivity”.

Consider “QVQLVESGGGLVQAGGSLRLSCAASGTICYPYAMGWYRQAPGKERELVASISWSGGSTRYADSVKGRFTISRDNAKNTVYLQMNSLKPEDTAVYYCAARYILSKYGSGVRYNYWGQGTQVTVSS”, for which the “polyreactivity (PSR sort gate)” value is given as “high polyreactivity”.

Consider “QVKLVESGGGLVQAGGSLRLSCAASGSIYWYAMGWYRQAPGKERELVAAISRRGGSTYYADSVKGRFTISRDNAKNTVYLQMNSLKPEDTAVYYCAVGIYGEYDYWGQGTQVTVSS”, for which the “polyreactivity (PSR sort gate)” value is “high polyreactivity”.

Turning to “QVQLVESGGGLVQAGGSLRLSCAASGRTFSNYAMGWYRQAPGKERELVAAISQRGGSTYYADSVKGRFTISRDNAKITVYLQMNSLKPEDTAVYYCNALFRLRAYADMDYWGQGTQVTVSS”, the “polyreactivity (PSR sort gate)” value is reported as “high polyreactivity”.

As for “QVQLVESGGGLVQAGGSLRLSCAASGLTFAYYAMGWYSQAPGKEREMVASINSGGSTNYADSVKGRFTISRDNAKNTVYLLMNSLKPEDTAVYYCAADWATWWYTYDFWGQGTQVTVSS”, the “polyreactivity (PSR sort gate)” value was “high polyreactivity”.

Take “QVQLVESGGGLVQAGGSLRLSCAASGRTFTQNAMGWYRQATGKERELVASISSSGSTYADSVKGRFTISRDNAKNTVYLQMISLKPEDTAVNYCNAVGFQANDYNYWGQGTQVTVSS”: the “polyreactivity (PSR sort gate)” value is reported as “low polyreactivity”.

As to “QVQLVESGVGLVQAGGSLRLSCAASGSIFDPYAMGWYRQPPGKERELVAAIPYSVGGTTYYADSVKGRFTISRDTAKNTVYLQMNSLKPEHTAVNYCAAEWWGNPFDYWGQGTQVTVST”, the “polyreactivity (PSR sort gate)” value was “high polyreactivity”.

As for “QVQLVESGGGLVQAGGSLRLSCAASGRTFPAYAMGWYRQAPGKERELVAAISYSGGRTRYADSVKGRFTISRDNAKNTVYLQMNSLKPEDTAVYYCNRVIPTHSLRDYYWGQGSQVTVSS”, the “polyreactivity (PSR sort gate)” value is reported as “high polyreactivity”.

“QVQLVESGGGLVHAGGSLRLSCAASGFTFWYYTMGWYRQAPGKERELVAAITASGGNTYYADSVKGRFTISRDNAKNTVYLQMYSLKPEDTAVYYSNAVSLKFTRKYDYWGQGPQVTVSS”: the “polyreactivity (PSR sort gate)” value was “high polyreactivity”.

Take “QDQLVESGGGLVQAGGSLRLSCAASGRTFGPNAMGWYRQAPGKERELVAAITGGGSTYYADSVKGRFTISRDNAKNTVYLQMNSLKPEDTAVYYCSNRGQGFHFGRDYWGQGTQVTVSS”: the “polyreactivity (PSR sort gate)” value is reported as “low polyreactivity”.

With “QVQLVESGGVLVQAGGSLRLSCAASARIFAYSVMGWYRQAPGKEREFVAAISWSGGRTYYAHSVKGRFTISRDNAKNTVYLQMNSLKPEDTAVYYCNAGRPLWLAYGMDYWGQGTQVTVSS”, the “polyreactivity (PSR sort gate)” value is given as “low polyreactivity”.

As for “QVQLVESGGGLVQAGGSLRLSCAASGRTFPVYAMGRYRPAPGKERELVAAISWSGGTTYYADSVPGRFTISRDNAKNTVYLQKHSLKPEDTAVYFCAARFGVRRRYDYWGQGTQVTVSS”, the “polyreactivity (PSR sort gate)” value is given as “high polyreactivity”.

Turning to “QVQLVESGGGIDQAGGSLRLRCAASGFIFRYYAMGWYRLAPGKESELVAVISASGGSTYYADSVKGRFTISRDNAKKTVYLQMNSRKPEDTAVYYCNTKRYFFHRGDMDYWGQGTQVTVSS”, the “polyreactivity (PSR sort gate)” value is on record as “high polyreactivity”.

In the case of “QVQLVESGAGIVQAGGSLRLCCAATGITFDFYAMGWYTQAPGKERELVAAISYSGTSTSYADSVKGRFTISRDNAKNTVYLQMNSLKPEDTAVYYCNARIGWTHSYYELDYWGQGTQVTVSS”, the “polyreactivity (PSR sort gate)” value is “low polyreactivity”.

“QVQLEESGGGLVQAGGSLRLSCAASGRIFGWYALGWTRQAAGKESELVAAISNDGSTNYADSVKGRFTSSRDNAKNTVYLQLNSVKPEDTAVSYCNARVYSSRARWGTYDYWGQGNQVTVSS”: the “polyreactivity (PSR sort gate)” value is “high polyreactivity”.

For the sequence “QVQLVESGGGLVQAGGSLRLSCAASGFTFTRNAMGWYRQAPGKERELVAAISSSAGSTSYADSVKGRFTISRDNAKNTVYLQMNSLKPEDTAVYYCAKSYRSSRRYNYWGQGTQVTVSS”, the “polyreactivity (PSR sort gate)” value is reported as “high polyreactivity”.

For the sequence “QVQLVETGGRLVQAGGSLRLSCAASGFTFWTYAMGWYRQAPGKERELVAAISTSGGSTYYADSVKGRFTISRDNAKNTVYLQMNSLKPEDTAVYYCSAYAIGEHFRARYGYWGQGTQVTVSS”, the “polyreactivity (PSR sort gate)” value is listed as “high polyreactivity”.

As to “QVQLQESGGGLVQAGGSLRLICAASGTISTDSYMGWYRQAPGKERKFVATIGYGGITYYADSVNGRSTISRDSAKNTVYLQMNSLKPDDTAVYYCEVNSYYPYHYWYWGRGTQVTVSS”, the “polyreactivity (PSR sort gate)” value is recorded as “high polyreactivity”.

Regarding “QVQLVESGGGLVQAGGSLRLSCAASGSTFRVYAMGWYRQAPGKERELVAAITRSGGRTHYADSVKGRFTISRDNAKNTVYLQMNSLKPEDTAVYYCAARFYYTKPEDYYWGQGTQVTVSS”, the “polyreactivity (PSR sort gate)” value is listed as “high polyreactivity”.
